Values quoted from earlier work in patent US20040072753A1, “Peptides for use in the treatment of alzheimer's disease” (priority 2000, published 2004).

Target: Aβ (Homo sapiens, UniProt P05067)
Conditions: Milton, Biochem. J. 344: 293-296 (1999); read-out: binding KD for catalase

B1: catalase: antioxidant enzyme that binds Aβ (protein)
chain: ADSRDPASDQMQHWKEQRAAQKADVLTTGAGNPVGDKLNVITVGPRGPLLVQDVVFTDEMAHFDRERIPERVVHAKGAGAFGYFEVTHDITKYSKAKVFEHIGKKTPIAVRFSTVAGESGSADTVRDPRGFAVKFYTEDGNWDLVGNNTPIFFIRDPILFPSFIHSQKRNPQTHLKDPDMVWDFWSLRPESLHQVSFLFSDRGIPDGHRHMNGYGSHTFKLVNANGEAVYCKFHYKTDQGIKNLSVEDAARLSQEDPDYGIRDLFNAIATGKYPSWTFYIQVMTFNQAETFPFNPFDLTKVWPHKDYPLIPVGKLVLNRNPVNYFAEVEQIAFDPSNMPPGIEASPDKMLQGRLFAYPDTHRHRLGPNYLHIPVNCPYRARVANYQRDGPMCMQDNQGGAPNYYPNSFGAPEQQPSALEHSIQYSGEVRRFNTANDDNVTQVRAFYVNVLNEEQRKRLCENIAGHLKDAQIFIQKKAVKNFTEVHPDYGSHIQALLDKYNAEKPKNAIHTFVQSGSHLAAREKANL
Kd: 3.3 nM
